The results in this text go back to US20230340151A1 (Pfizer, published 2023).

Assay [1] has as its target T1, Cynomolgus CD3 epsilon-delta (cynomolgus).
T1 chain: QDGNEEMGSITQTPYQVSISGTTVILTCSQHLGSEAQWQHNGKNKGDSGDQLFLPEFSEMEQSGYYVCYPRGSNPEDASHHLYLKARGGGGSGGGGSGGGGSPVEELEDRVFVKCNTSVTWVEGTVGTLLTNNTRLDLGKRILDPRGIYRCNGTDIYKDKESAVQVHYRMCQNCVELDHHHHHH
Briefly: SPR, printed anti-His capture, 25 C (Table 33D).

The target of assay [2] is T2, Human GUCY2C full length (SEQ ID NO: 224), recombinant protein (human, UniProt P25092 24-430, limits assumed).
T2 construct: also called huGUCY2C; biotinylated human GUCY2c
T2 sequence (P25092 24-430 F281L limits assumed): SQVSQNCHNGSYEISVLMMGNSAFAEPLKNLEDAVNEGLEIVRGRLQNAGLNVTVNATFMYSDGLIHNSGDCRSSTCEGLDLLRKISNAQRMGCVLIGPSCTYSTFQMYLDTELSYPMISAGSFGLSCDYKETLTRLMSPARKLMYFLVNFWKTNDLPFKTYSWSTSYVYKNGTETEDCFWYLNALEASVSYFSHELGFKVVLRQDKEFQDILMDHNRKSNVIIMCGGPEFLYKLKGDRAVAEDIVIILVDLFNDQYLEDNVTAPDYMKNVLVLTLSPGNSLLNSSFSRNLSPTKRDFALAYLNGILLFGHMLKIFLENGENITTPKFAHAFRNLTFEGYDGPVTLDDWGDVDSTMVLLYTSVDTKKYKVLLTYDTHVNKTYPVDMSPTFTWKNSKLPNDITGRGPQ
Briefly: SPR, anti-human IgG capture, 25 C. (In general: Surface plasmon resonance follows binding to a sensor surface in real time, without labels.)

Assay [3] addresses T3, Human CD3 epsilon-delta (human).
T3 construct: Single-chain epsilon-linker-delta with His6; also called huCD3
T3 chain: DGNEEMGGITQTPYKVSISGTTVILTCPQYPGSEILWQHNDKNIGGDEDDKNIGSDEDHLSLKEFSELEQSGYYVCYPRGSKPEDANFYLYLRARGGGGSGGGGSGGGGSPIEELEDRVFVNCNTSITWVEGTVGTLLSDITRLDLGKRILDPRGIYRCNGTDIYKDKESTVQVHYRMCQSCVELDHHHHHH
Briefly: direct ELISA, coated CD3 epsilon-delta. (ELISA stands for enzyme-linked immunosorbent assay.)

Assay [4] deals with T3, Human CD3 epsilon-delta. Briefly: SPR, anti-human IgG capture, 25 C.
For assay [5], the target named is T4, Purified human GUCY2c ECD (recombinant, construct not stated) (human, UniProt P25092 24-430).
T4 construct: also called recombinant human GUCY2c; recombinant GUCY2c protein
T4 sequence (P25092 24-430 limits assumed): as the sequence (P25092 24-430 F281L limits assumed) above, with L258F counted along it
Put plainly: direct ELISA, coated GUCY2c ECD.

Assay [6] deals with T5, Murine GUCY2C-ECD cleaved (mouse, UniProt Q3UWA6 20-433).
T5 sequence: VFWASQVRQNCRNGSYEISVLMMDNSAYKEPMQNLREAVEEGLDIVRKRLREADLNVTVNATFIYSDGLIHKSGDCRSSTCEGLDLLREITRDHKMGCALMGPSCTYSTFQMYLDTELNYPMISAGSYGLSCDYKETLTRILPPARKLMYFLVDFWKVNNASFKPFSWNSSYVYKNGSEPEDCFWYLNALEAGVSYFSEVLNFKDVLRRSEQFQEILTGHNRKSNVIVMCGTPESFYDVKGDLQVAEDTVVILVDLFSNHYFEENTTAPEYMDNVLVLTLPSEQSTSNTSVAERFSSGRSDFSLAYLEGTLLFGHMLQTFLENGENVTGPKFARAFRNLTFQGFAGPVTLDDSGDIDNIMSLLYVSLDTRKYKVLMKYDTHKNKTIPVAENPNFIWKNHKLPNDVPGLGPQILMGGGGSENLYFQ
Briefly: SPR, anti-human IgG capture, 25 C.

For assay [7], the target named is T6, Human GUCY2C ECD-muIgG2a (human).
T6 construct: also called human GUCY2c ECD-mouse IgG2a Fc fusion protein; huGUCY2c-mIgG2a
T6 sequence (chain, as listed by the source limits assumed): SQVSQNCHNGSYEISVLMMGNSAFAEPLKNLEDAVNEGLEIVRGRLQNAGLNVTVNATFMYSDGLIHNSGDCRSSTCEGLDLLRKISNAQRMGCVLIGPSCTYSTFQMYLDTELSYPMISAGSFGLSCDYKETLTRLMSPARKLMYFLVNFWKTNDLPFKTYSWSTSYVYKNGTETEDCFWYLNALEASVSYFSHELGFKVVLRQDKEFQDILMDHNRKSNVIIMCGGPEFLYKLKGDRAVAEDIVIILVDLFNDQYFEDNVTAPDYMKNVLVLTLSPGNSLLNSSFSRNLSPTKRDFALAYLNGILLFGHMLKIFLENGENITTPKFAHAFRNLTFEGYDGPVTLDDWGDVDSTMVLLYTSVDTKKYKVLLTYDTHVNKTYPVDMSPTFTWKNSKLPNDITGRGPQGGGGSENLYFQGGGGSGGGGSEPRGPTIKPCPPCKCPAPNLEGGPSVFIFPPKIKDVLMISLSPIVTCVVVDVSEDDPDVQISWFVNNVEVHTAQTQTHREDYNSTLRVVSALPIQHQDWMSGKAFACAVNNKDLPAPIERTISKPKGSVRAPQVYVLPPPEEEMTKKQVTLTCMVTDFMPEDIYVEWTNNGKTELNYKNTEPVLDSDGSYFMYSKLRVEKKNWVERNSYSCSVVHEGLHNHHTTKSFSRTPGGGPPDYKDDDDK
Briefly: sandwich ELISA: CD3 epsilon-delta coated, GUCY2c ECD-mIgG2a Fc in solution.

Assay [8] has as its target Human GUCY2c on tumor cells (T84, HT55) (human, UniProt P25092 24-1073). Briefly: cell-based or functional assay.
Assay [9] addresses T7, Cynomolgus GUCY2C-ECD Cleaved (cynomolgus, UniProt P25092 24-430 (human entry)).
T7 construct: also called CyGUCY2C
T7 chain: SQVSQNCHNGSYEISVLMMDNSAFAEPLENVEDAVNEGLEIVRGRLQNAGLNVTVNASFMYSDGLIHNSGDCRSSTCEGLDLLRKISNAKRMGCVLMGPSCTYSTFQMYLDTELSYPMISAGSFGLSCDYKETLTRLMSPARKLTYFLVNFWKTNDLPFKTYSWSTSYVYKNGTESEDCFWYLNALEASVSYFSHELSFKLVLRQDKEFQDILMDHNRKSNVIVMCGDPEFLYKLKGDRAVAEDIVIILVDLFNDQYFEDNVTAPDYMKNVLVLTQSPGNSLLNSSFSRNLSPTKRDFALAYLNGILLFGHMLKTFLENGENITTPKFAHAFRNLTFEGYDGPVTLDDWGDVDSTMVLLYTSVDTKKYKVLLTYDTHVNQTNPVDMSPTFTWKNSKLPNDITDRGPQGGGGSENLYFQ
Put plainly: SPR, anti-human IgG capture, 25 C.

Assay [10] has as its target T4, Purified human GUCY2c ECD (recombinant, …). Briefly: ELISA; column 'Direct huGUCY2C binding (nM)'.

Broadly, the Kd is the concentration at which binding is half-saturated. Usually koff stands for a measure of how fast the partners let go of each other. One may read the kon as the second-order rate constant of association. As a reminder, the EC50 is the concentration that produces a half-maximal response.

Chain of Human GUCY2c on tumor cells (T84, HT55) (P25092 24-1073 limits assumed): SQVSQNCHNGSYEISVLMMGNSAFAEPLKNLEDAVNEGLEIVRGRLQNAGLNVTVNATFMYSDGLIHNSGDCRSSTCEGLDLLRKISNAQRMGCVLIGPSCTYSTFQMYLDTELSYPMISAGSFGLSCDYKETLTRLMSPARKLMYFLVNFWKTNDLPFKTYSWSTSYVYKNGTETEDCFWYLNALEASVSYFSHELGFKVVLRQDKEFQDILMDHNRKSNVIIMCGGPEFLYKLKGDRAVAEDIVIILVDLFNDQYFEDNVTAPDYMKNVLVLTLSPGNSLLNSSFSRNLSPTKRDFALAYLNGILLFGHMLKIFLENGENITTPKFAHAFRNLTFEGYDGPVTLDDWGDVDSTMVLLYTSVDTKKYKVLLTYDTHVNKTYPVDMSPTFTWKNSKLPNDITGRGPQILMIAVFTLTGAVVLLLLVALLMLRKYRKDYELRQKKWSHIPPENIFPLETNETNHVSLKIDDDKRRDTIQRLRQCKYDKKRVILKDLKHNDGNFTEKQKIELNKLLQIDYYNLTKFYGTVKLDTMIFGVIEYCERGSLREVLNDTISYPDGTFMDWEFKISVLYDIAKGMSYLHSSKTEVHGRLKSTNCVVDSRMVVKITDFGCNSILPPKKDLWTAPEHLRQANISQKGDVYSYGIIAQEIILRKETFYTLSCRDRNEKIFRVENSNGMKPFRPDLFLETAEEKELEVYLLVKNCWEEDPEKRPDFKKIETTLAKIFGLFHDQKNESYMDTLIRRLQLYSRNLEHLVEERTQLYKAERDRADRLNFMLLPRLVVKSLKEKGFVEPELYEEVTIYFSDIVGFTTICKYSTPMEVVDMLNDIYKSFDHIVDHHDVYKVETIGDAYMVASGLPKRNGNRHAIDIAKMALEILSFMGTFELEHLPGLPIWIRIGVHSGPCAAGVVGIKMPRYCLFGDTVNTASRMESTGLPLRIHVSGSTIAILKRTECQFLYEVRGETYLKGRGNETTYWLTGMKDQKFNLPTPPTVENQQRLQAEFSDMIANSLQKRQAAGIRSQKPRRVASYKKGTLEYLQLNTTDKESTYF

B1: GUCY2C-0074 (bispecific antibody)
chain 1: DIVLTQSPASLAVSLGQRATISCRASESVDNYGISFMNWFQQKPGQPPKLLIYAASNPGSGVPARFSGSGSGTDFSLNIHPLEEDDTAMFFCQQSKEVPYTFGGGTKLEIKGGGSGGGGEVQLVESGGGLVQPGGSLRLSCAASGFTFSDYYMTWVRQAPGKGLEWVAFIRNRARGYTSDHNPSVKGRFTISRDNAKNSLYLQMNSLRAEDTAVYYCARDRPSYYVLDYWGQGTTVTVSSGCPPCPAPEAAGAPSVFLFPPKPKDTLMISRTPEVTCVVVDVSHEDPEVKFNWYVDGVEVHNAKTKPREEQYNSTYRVVSVLTVLHQDWLNGKEYKCKVSNKALPAPIEKTISKAKGQPREPQVCTLPPSREEMTKNQVSLWCLVKGFYPSDIAVEWESNGQPENNYKTTPPVLDSDGSFFLYSKLTVDKSRWQQGNVFSCSVMHEALHNHYTQKSLSLSPG
chain 2: DIVMTQSPDSLAVSLGERATINCKSSQSLFNVRSRKNYLAWYQQKPGQPPKLLISWASTRESGVPDRFSGSGSGTDFTLTISSLQAEDVAVYYCKQSYDLFTFGSGTKLEIKGGGSGGGGEVQLQQSGAELARPGASVNLSCKASGYTFTTYWMQWVKQRPGQGLEWIGAIYPGDGMTTYTQKFKDKATLTADKSSSTAYMQLSSLASEDSAVYYCVRKGMDYWGQGTSVTVSSGCPPCPAPEAAGAPSVFLFPPKPKDTLMISRTPEVTCVVVDVSHEDPEVKFNWYVDGVEVHNAKTKPREEQYNSTYRVVSVLTVLHQDWLNGKEYKCKVSNKALPAPIEKTISKAKGQPREPQVYTLPPCREEMTKNQVSLSCAVKGFYPSDIAVEWESNGQPENNYKTTPPVLDSDGSFFLVSKLTVDKSRWQQGNVFSCSVMHEALHNHYTQKSLSLSPG
notes: chimeric CD3-GUCY2c diabody-Fc, CD3-0004
B1: the equilibrium dissociation constant (Kd) in assay [1] came out at 2.64 nM; in [2] it was 45.4 nM; in [4], 2.17 nM; in assay [6], 191 nM; in assay [9], 60.4 nM. The koff in assay [1] was 0.00112 s⁻¹; in [2], 0.002 s⁻¹; in assay [4], 0.000861 s⁻¹; in [6] it was 0.00282 s⁻¹; in assay [9], 0.00284 s⁻¹. The kon came to 425000 M⁻¹ s⁻¹ in assay [1]; 44100 M⁻¹ s⁻¹ in assay [2]; 471000 M⁻¹ s⁻¹ in assay [4]; 14800 M⁻¹ s⁻¹ in [6]; 47300 M⁻¹ s⁻¹ in assay [9]. The EC50 in [3] was 1.13 nM; in assay [5] it was greater than 100 nM; in assay [7], 4.05 nM. Further, the “T84 tumor cell EC50 (T cell cytotoxicity, E:T 10:1)” value in [8] worked out at 2.6 nM.

B2: GUCY2C-0166 (antibody, human IgG1, V domains shown)
VH: EVQLVESGGGLVQPGGSLRLSCAASGYTFTTYWMQWVRQAPGKGLEWIGAIYPGDGMTTYTQKFKDRFTISADKAKNSAYLQMNSLRAEDTAVYYCVRKGMDYWGQGTLVTVSS
VL: DIQLTQSPSSLSASVGDRVTITCRASESVDNYGISFMNWFQQKPGKAPKLLIYAASNPGSGVPSRFSGSGSGTDFTLTISSLQPEDFATYYCQQSKEVPYTFGQGTKLEIK
notes: human IgG1
As to B2, the EC50 in [10] was determined as 0.0693 nM.

B3: GUCY2C-0193 (antibody, human IgG1, V domains shown)
VH: EVQLVESGGGLVQPGGSLRLSCAASGYTFTSYWMHWVRQAPGKGLEWIGEIKPSNGLTNYIEKFKNRFTISVDKAKNSAYLQMNSLRAEDTAVYYCTRTITTTEGYWFFDVWGQGTLVTVSS
VL: DIQMTQSPSSLSASVGDRVTITCRASESVDYYGTSLMQWYQQKPGKAPKLLIYAASNVESGVPSRFSGSGSGTDFTLTISSLQPEDFATYYCQQTRKVYTFGQGTKLEIK
Consider B3, for which the EC50 in assay [10] is 0.23 nM.

B4: GUCY2C-0179 (antibody, human IgG1, V domains shown)
VH: EVQLVESGGGLVQPGGSLRLSCAASGYSFTDYIMLWVRQAPGKGLEWIGNSNPYYGSTSYNLKFKGRFTISVDKAKNSAYLQMNSLRAEDTAVYYCARSGYYGSSPYWYFDVWGQGTMVTVSS
VL: DIQMTQSPSSLSASVGDRVTITCKSSQSLLYSSNQKNYLAWYQQKPGKSPKLLIYWASTRESGVPSRFSGSGSGTDFTLTISSLQPEDFATYYCQQYYSYPTFGGGTKVEIK
On to B4, for which the EC50 in [10] turned out to be 5.14 nM.
